Paper PMC7247576

Tests used:
Assay in all cases: EMSA
Settings in all cases: tetrahydrofuran abasic residue (F); EMSA: 50 mM Tris-HCl pH 8.0, 100 mM NaCl, 1 mM DTT, 50 nM FAM-AP-DNA, 4 °C, 30 min; 5% native PAG. Fluorescence: 50 mM HEPES pH 8.0, 100 mM NaCl, 4 mM DTT …
APE1NΔ35 (Homo sapiens) = test system: APE1NΔ35 (Homo sapiens)
APE1NΔ61 (Homo sapiens) = test system: APE1NΔ61 (Homo sapiens)
[1] = test system: APE1 (full-length) (Homo sapiens)

In the case of “AP-DNA (32-mer duplex with synthetic abasic site)”, the K half (APE1NΔ35 (Homo sapiens)) is reported as 200 nM, the K half (APE1NΔ61 (Homo sapiens)) is reported as 210 nM and the K half [1] is reported as 120 nM.
